From paper PMC8519434, “The structure of nontypeable Haemophilus influenzae SapA in a closed conformation reveals a constricted ligand-binding cavity and a novel RNA binding motif” (PLoS ONE, 2021)

Experiments:
SapA = biological target: T1, SapA (Haemophilus influenzae, UniProt Q4QL73); assay: ITC (stoichiometry fixed to […]), crystal structure by hemin soaking ([…] Å), native PAGE shift; type: binding
T1 construct: residues 33 to 560, without the predicted signal peptide

[1] = biological target: T2, SapA (nontypeable Haemophilus influenzae 86-028NP) (UniProt Q4QL73); assay: EMSA (agarose, decrease of rRNA bands)
T2 sequence: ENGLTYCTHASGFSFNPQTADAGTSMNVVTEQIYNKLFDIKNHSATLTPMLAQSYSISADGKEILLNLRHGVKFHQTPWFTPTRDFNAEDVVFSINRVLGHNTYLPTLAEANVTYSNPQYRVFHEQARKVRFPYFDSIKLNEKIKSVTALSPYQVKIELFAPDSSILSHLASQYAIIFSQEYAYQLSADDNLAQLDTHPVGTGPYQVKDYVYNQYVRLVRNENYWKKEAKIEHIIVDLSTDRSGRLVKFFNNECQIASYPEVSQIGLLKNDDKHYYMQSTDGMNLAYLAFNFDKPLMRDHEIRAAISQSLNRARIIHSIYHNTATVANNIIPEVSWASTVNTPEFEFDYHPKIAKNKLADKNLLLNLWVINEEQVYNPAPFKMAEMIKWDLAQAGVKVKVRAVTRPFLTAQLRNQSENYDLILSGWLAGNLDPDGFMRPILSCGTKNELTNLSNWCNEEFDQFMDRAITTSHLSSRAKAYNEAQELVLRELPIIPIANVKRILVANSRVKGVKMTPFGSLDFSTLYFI

[2] = test system: SapA Q85S R101S (nontypeable Haemophilus influenzae 86-028NP); assay: EMSA (agarose, decrease of rRNA bands)
[3] = test system: SapA R101S (nontypeable Haemophilus influenzae 86-028NP); assay: EMSA (agarose, decrease of rRNA bands)

Row | Compound | Kd (SapA) | Kd [1] | Kd [2] | Kd [3]
1 | C=CC1=C(C)C2=Cc3c(C=C)c(C)c4[n]3[Fe][n]3c(c(C)c(CCC(=O)O)c3=CC3=NC(=C4)C(C)=C3CCC(=O)O)=CC1=N2 [heme] | 282 ± 18.3 µM |  |  | 
2 | E. coli DH5alpha rRNA (16S + 23S bands of total RNA) |  | 4.4 µM | 23 µM | 7.7 µM
